# Data from the nanobody polyreactivity screen of Harvey et al. (2022).
# Assay: yeast display, Sf9 membrane polyspecificity reagent, FACS + sequencing; frameworks hold sequencing errors
# Procedure, shortened: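 Nanobodies from a synthetic yeast display library (Saccharomyces cerevisiae BJ5465), induced 36–48 hours with galactose, were stained 1 hour at 4 °C with 10% biotinylated, detergent-solubilized Sf9 membrane reagent, enriched on streptavidin microbeads, then FACS-sorted. Anti-HA (expression) and streptavidin (reagent binding) fluorescence set low and high (top ~1%) gates. Polyreactivity labels come from the gate of origin. Genes were colony-PCR amplified, MiSeq 2 × 250 sequenced and filtered by CDR length.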
row,Sequence,polyreactivity (PSR sort gate)
1,QVQLVESGGGLVQAGGSLRLSCAASGSNFSYYTMGWYRQAPGKERELVAAISTSGGSTYYADSVKGRFTISRDNAKNTVYLQMNSLKPEDTAVYYCAARYGRYYKYNYWGQGTQVTVSS,high polyreactivity
2,QVQLVESGGGLVQAGGSLRLSCAASGSNFTQYAMGWYRQAPGTERELVAAISSGTRTYYADSVKGRFTISRDNAKNTVYVQMNSLKPEDTAVYYCAARYRSYFYWSGYWGHGTQVTVSS,low polyreactivity
3,QVQLVESGGGLVQAGGSLRLSCAASGSNFTSYAMGWYRQAPGKERELVAAISKSGGSTYYADSVKGRFTISRDNAKNTVYLQMNSLKPEDTAVFYCAARYNVRSYTTSRFDYWGQGTQVTVSS,low polyreactivity
4,QVQLVESGGGLVQAGGSLRLSCAASGSNFTVYAMGWYRQAPGKDGELVAAISYNGGCTYYADSVKGRFTISRDNAKNTVYLQMNSLKPEDTAVYYCAARYRDRGRRAEYEYWGQGTQVTVSS,high polyreactivity
5,QVQLVESGGGLVQAGGSLRLSCAASGSNFVPYTMGWYRQAPGKERELVASISYSVGTTYYADSVKGRFTISRDNAKNTVYLQMNSLKPEDTAVYYCAADWDESYSYRRYRHYDYWGQGTQVTVSS,low polyreactivity
6,QVQLVESGGGLVQAGGSLRLSCAASGSNFVYNAMGWYRPAPGKERELVAAITGRVGSTYYADSVKGRFTISRDNAKNTVYLQMISLKPEDTAVYYCAARSYFKWWYAMDYWGQGTQVSVSS,high polyreactivity
7,QVQLVESGGGLVQAGGSLRLSCAASGSNFYFYAMGWYRQAPGKERELVAAISFTDTSTYYADSVKGRFTISRDNAKNTVYLQMNSLKPEDTAVYYCAADFTQYYYWTRYEYWGQGTQVTVSS,high polyreactivity
8,QVQLVESGGGLVQAGGSLRLSCAASGSNIGWNTMGWYRQAPGKERELVAAITSGGRTYYADSVKGRFTISRDNAKNTVYLQINSLKPEDTAVYYCKAVVRHTYRRFDYWGQGTQVTVSS,high polyreactivity
9,QVQLVESGGGLVQAGGSLRLSCAASGSNIGWYAMGSYRQAPGKERELVAAISSSDGSTYYADSVKGRFTISRDNAKNTVYLQMNSLKPEDTAVYYCATDSDFTYAQYDYWGQGTQVTVSS,low polyreactivity
10,QVQLVESGGGLVQAGGSLRLSCAASGSNISNYVMGWYRQAPWKERELVAAITRRGGRTYYADSVKGRFTISRDYAKNTFYLQMNSLKPEDTAVYYCAKRHVGSRYLFEYWGQGTQVTVSS,low polyreactivity
11,QVQLVESGGGLVQAGGSLRLSCAASGSNITTYAMGWYRQAPGKERELVAAITDTSSTNYADSVKGRFTISRDNAKNTVYLQMNSLKPEVTAVYYCAVDLGYEYDWGQGTQVTVSS,low polyreactivity
12,QVQLVESGGGLVQAGGSLRLSCAASGSNIYVYAMGWYRQAPGKERELVAAISSSSDSTYADSVKGRFTISRDNAKNTVYLQMNSLKPEDTAVYYCNKKNAVYFAYDYWGQGTQVTVSS,low polyreactivity
13,QVQLVESGGGLVQAGGSLRLSCAASGSNSSFYAMGWYRQAPGKERELVAGITSGGSTNYADSVKGRFTISRDNAKNTVYLQLNSLKPEDTAVYYCAAERTPSFRAYDYWGQGTLVTVSS,low polyreactivity
14,QVQLVESGGGLVQAGGSLRLSCAASGSNYSGYTMGWYRQAPGKERELVAAISYRGGRTYYADSVKGRFTISRDNAKNTVYFLMNSLKPEDTAVYYCNAAPYITRRHDYWGQGTLVTVSS,high polyreactivity
15,QVQLVESGGGLVQAGGSLRLSCAASGSNYYVYPMGWYRQAPGKERELVATISTGGSTYYADSVKGRFTISRDNAKNTVYLQMNSLKPEDTAVYYCNAQITPRYWGGYDSWGQGTQVTVSS,low polyreactivity
16,QVQLVESGGGLVQAGGSLRLSCAASGSPFFRNAMGWYRPAPGTERELVADISASGGSTYYADSVKGRFTLSRDNAKNTVNLQMNSLKPEDTAVYSCNALYIYSYNYLTMDYWGQGTQVTVSS,low polyreactivity
17,QVQLVESGGGLVQAGGSLRLSCAASGSPFSSYVMGWYRQAPGTERELVAAISSIGGSTYSADSVKGRFTISRDNAKNTVFLQLNSLKPEDTAVYYCNALYDVWITLHTYTSSDYWGEGTQVTVSS,low polyreactivity
18,QVQLVESGGGLVQAGGSLRLSCAASGSSFDVYTMGWYRQAPGKERELVAAINTGGGSTYYADSVKGRFTISRDNAKNTVYLQMNSLKPEDTAVYYCAASVYHYGPLYYWGQGTQVTVSS,low polyreactivity
19,QVQLVESGGGLVQAGGSLRLSCAASGSSFGRYVMGSYRPAPGKERELVAAIRSRGGSTYYADSVKGRFTISRDIAKNTVYLQMNSLKPEYTAVYYCNDVDRKPYRTYDYWGQGTQVTVSS,high polyreactivity
20,QVQLVESGGGLVQAGGSLRLSCAASGSSFGWYGMGWYRQAPGKERELVASINWRGSSTYYADSVKGRFTISRDNSKNTVYLQMNSLKPEDTAVYYCATTRDWAYNYWGQGTQVTVSS,low polyreactivity

row,Sequence,polyreactivity (PSR sort gate)
1,QVQLVESGGGLVQAGGSLRLSCAASGSSLDYYAMGWSRQAPGKERDLLAAITWSGGRTSYADSVTGRFTISRDNAKNTVYLQMNSLKPEDTAVYYGAAESFLYLLDRASGWQYEYWGQGTQVSVSS,low polyreactivity
2,QVQLVESGGGLVQAGGSLRLSCAASGSTCARNSMGWYRQAPGKERELVAAISYSGGTTYYADSVKGRFTISRDNAKNTVYLQRNSLKPEDTAVSYCAKWEGHGRNPWGAGTEGDYWGQGTQVTVSS,low polyreactivity
3,QVQLVESGGGLVQAGGSLRLSCAASGSTCWFYAMGWYRQAPGKEREVVATITSGGNTTYADSVKGRFTISRDNAKNTVYLQMNSLKPEDTAVYYCAAGWQAPWGYYYHFEYDYWGQGTQVTVSS,low polyreactivity
4,QVQLVESGGGLVQAGGSLRLSCAASGSTCWSYAMGWYRQAPGKERELVATITRAGTTNYADSVKGRFTISRDNAKNTVSLQRNSLNPEDTAVYYCAKRIFRWPYQGSYSFIPFGYWGQGTQVTVSS,high polyreactivity
5,QVQLVESGGGLVQAGGSLRLSCAASGSTFAANAMGWYRQAPGKERELVAVIRRGGSTTYADSVKGRFTISRDNAKNTVYLLMNSLKPEDTAVYYCNARVTLGRPLFTYLVRYEYWGQGTQVTVSS,high polyreactivity
6,QVQLVESGGGLVQAGGSLRLSCAASGSTFAAYVMGWYRQAPGKERELVAAITKSGSSTYYADSVKGRFTISRDNAKNTVYLQMNSLKPEDTAVEYCAAYPVRVLYDYWGQGTQVTVSS,high polyreactivity
7,QVQLVESGGGLVQAGGSLRLSCAASGSTFADYAMGWYRQAPGKERELVAAISWSGGRTYYADSVKGRFTISRDNAKNTVYLQMNSLKPEDTAVYYCAAGFGDGPGNGYYTRYSWDDDYWGQGTQVTVSS,low polyreactivity
8,QVQLVESGGGLVQAGGSLRLSCAASGSTFAEYAMGWYRQAPGKERELVAAIRWSGGSTSYADSVKGRFTMSRDNAKHTVYLQMNSLKPEDTAVYYCAAERFWYDGAVKLYVLSYYWGQGTQVTVSS,low polyreactivity
9,QVQLVESGGGLVQAGGSLRLSCAASGSTFAEYVMGWYRQAPGKERELVAAISSGTSTYYADSVKGRFTISRDNAKNTVYLQMNSLKPEDTAVYYCNDDLYHTWYKPEYDYWGQGTQVTVSS,low polyreactivity
10,QVQLVESGGGLVQAGGSLRLSCAASGSTFAFNAMGWYRQAPGKEREFVARITWSDGSTYYADSVKGRFTISRDNAKNSVYLQMNSLKPEDTAVYYCARDPTEQAIARWTYDYWGQGTQVTVSS,low polyreactivity
11,QVQLVESGGGLVQAGGSLRLSCAASGSTFAFYAMGWYRQAPGKERELVAAISRSGGRTYYADSVKGRFTISRDNAKNTVYLQMNSLKPEDTAVYYCAAVFRSGYLRYYYWGQGTQVTVSS,high polyreactivity
12,QVQLVESGGGLVQAGGSLRLSCAASGSTFAFYDMGWYRQAPGKERELVAAISPSDGDTYYADSVKGRFTISRDNAKNTVYLQMNSLKPEDTAVYYSAAETSHNPEYERGSDYWGQGTQVTVSS,low polyreactivity
13,QVQLVESGGGLVQAGGSLRLSCAASGSTFAGNAMGWYRQAPGKERESVAAIDSSTGSTYYADSVKGRFTISRDNAKNTVYLQMTSLKPEDTAVYYCNKTSFLVKLDYWGQGTHVTVSS,low polyreactivity
14,QVQLVESGGGLVQAGGSLRLSCAASGSTFAHYTMGWYRQAPGKERELVAAITRSGGSTYYADSVKGRFTISRDNAKNKVYLQMNSLKPEDTAVYYCAATRQWNILRYDYWGQCTQVTVSS,low polyreactivity
15,QVQLVESGGGLVQAGGSLRLSCAASGSTFAIYAMGLYRQAPGKERELVAAITRSGGNTYYAESVKGRFTISRDNAKNTVYLQMNSLKPEDTAVYYCNAETYYWSAYAQYEYWGQGTQVTVSS,high polyreactivity
16,QVQLVESGGGLVQAGGSLRLSCAASGSTFAIYAMGWYRQAPGKERELVAAITRGSTSYADSVKGRFTISRDNAKNTVYLQMNSLKPEDTAVYYCAADSSRYGVIRDFDYWGQGTQVTVSS,high polyreactivity
17,QVQLVESGGGLVQAGGSLRLSCAASGSTFAKNAMGWYRQAPGKERELVAAITYSGGSTYYADSVKGRFTISRDNAKNTVYLQMNSLKPEDTAVYFCASDVWWSDYRYDYWGQGTQVTVSS,low polyreactivity
18,QVQLVESGGGLVQAGGSLRLSCAASGSTFAKNAMGWYRQAPGKERQLVAAITYSGGSTYYADSVKGRFTISRDNAKNTVYLQMNSLKPEDTAVYYCAADVWWSYYRYDYWGQGTQVTVSS,low polyreactivity
19,QVQLVESGGGLVQAGGSLRLSCAASGSTFAKYAMGWYRQAPGKERELVAAISSSGTSTYYADSVKGRFTISRDNAKNTVYLQMNSLKPEDTAVYYCAASYRNRYIAFYYWGQGTQVTVSS,low polyreactivity
20,QVQLVESGGGLVQAGGSLRLSCAASGSTFALYAMGWYRQAPGKERELVAAISRSGSSTYYADSVKGRFTMSRDNAKNTVYLQMNSLKPEDTAVYYCATTISGLTSRLYYWGQGTQVTVSS,high polyreactivity
